{"source": "patent US20200199204A1", "about": "(UNITED STATES OF AMERICA AS REPRESENTED BY THE SECRETARY …, published 2020)", "binders": {"B1": {"name": "CAP256-VRC26.10 (antibody, V domains shown)", "VH": "QAILVESGGGVVQPGRSLRLSCAASQFTFSGHGLHWVRQAPGKGLEWVASISFAGTKMDYADSVKGRFAISRDNSKNTLYLQMNSLRVEDTALYYCAKDMREYECEYWTSDYYDFGRPQPCIDRRGVVGIFDMWGQGTMVTVST", "VL": "QSVLTQPPSVSAAPGQKVTISCSGSSSNIGDNYVSWYQHLPGTAPKLLIYENTRRPSGIPDRFSGSKSGTSATLAITGLQTGDEADYYCGTWDVRPNRGAVFGTGTKVTVLG"}}, "assay_in_all_cases": "cell-based or functional assay", "key": {"HIV-1 Env of CAP256.PI": {"molecular_target": "HIV-1 Env of CAP256.PI (HIV-1)"}, "HIV-1 Env of CAP256.SU": {"molecular_target": "HIV-1 Env of CAP256.SU (HIV-1)"}, "HIV-1 Env of 96ZM651.02": {"molecular_target": "HIV-1 Env of 96ZM651.02 (HIV-1)"}, "HIV-1 Env of CAP210.E8": {"molecular_target": "HIV-1 Env of CAP210.E8 (HIV-1)"}, "HIV-1 Env of CAP244.D3": {"molecular_target": "HIV-1 Env of CAP244.D3 (HIV-1)"}, "HIV-1 Env of CAP45.G3": {"molecular_target": "HIV-1 Env of CAP45.G3 (HIV-1)"}, "HIV-1 Env of DU156.12": {"molecular_target": "HIV-1 Env of DU156.12 (HIV-1)"}, "HIV-1 Env of DU172.17": {"molecular_target": "HIV-1 Env of DU172.17 (HIV-1)"}, "HIV-1 Env of DU422.01": {"molecular_target": "HIV-1 Env of DU422.01 (HIV-1)"}, "HIV-1 Env of ZM109.4": {"molecular_target": "HIV-1 Env of ZM109.4 (HIV-1)"}, "HIV-1 Env of ZM135.10a": {"molecular_target": "HIV-1 Env of ZM135.10a (HIV-1)"}, "HIV-1 Env of ZM197.7": {"molecular_target": "HIV-1 Env of ZM197.7 (HIV-1)"}, "HIV-1 Env of ZM214.15": {"molecular_target": "HIV-1 Env of ZM214.15 (HIV-1)"}, "HIV-1 Env of ZM233.6": {"molecular_target": "HIV-1 Env of ZM233.6 (HIV-1)"}, "HIV-1 Env of ZM249.1": {"molecular_target": "HIV-1 Env of ZM249.1 (HIV-1)"}, "HIV-1 Env of ZM53.12": {"molecular_target": "HIV-1 Env of ZM53.12 (HIV-1)"}, "HIV-1 Env of 0260.v5.c36": {"molecular_target": "HIV-1 Env of 0260.v5.c36 (HIV-1)"}, "HIV-1 Env of BG505.w6m": {"molecular_target": "HIV-1 Env of BG505.w6m (HIV-1)"}, "HIV-1 Env of KER2008.12": {"molecular_target": "HIV-1 Env of KER2008.12 (HIV-1)"}, "HIV-1 Env of KER2018.11": {"molecular_target": "HIV-1 Env of KER2018.11 (HIV-1)"}, "HIV-1 Env of MB201": {"molecular_target": "HIV-1 Env of MB201 (HIV-1)"}, "HIV-1 Env of MB539.2B7": {"molecular_target": "HIV-1 Env of MB539.2B7 (HIV-1)"}, "HIV-1 Env of Q168.a2": {"molecular_target": "HIV-1 Env of Q168.a2 (HIV-1)"}, "HIV-1 Env of Q23.17": {"molecular_target": "HIV-1 Env of Q23.17 (HIV-1)"}, "HIV-1 Env of Q259.d2.17": {"molecular_target": "HIV-1 Env of Q259.d2.17 (HIV-1)"}, "HIV-1 Env of Q461.e2": {"molecular_target": "HIV-1 Env of Q461.e2 (HIV-1)"}, "HIV-1 Env of Q769.d22": {"molecular_target": "HIV-1 Env of Q769.d22 (HIV-1)"}, "HIV-1 Env of Q842.d12": {"molecular_target": "HIV-1 Env of Q842.d12 (HIV-1)"}, "HIV-1 Env of RW020.2": {"molecular_target": "HIV-1 Env of RW020.2 (HIV-1)"}, "HIV-1 Env of UG037.8": {"molecular_target": "HIV-1 Env of UG037.8 (HIV-1)"}, "HIV-1 Env of 6535.3": {"molecular_target": "HIV-1 Env of 6535.3 (HIV-1)"}, "HIV-1 Env of AC10.29": {"molecular_target": "HIV-1 Env of AC10.29 (HIV-1)"}, "HIV-1 Env of CAAN.A2": {"molecular_target": "HIV-1 Env of CAAN.A2 (HIV-1)"}, "HIV-1 Env of PVO.04": {"molecular_target": "HIV-1 Env of PVO.04 (HIV-1)"}, "HIV-1 Env of QH0692.42": {"molecular_target": "HIV-1 Env of QH0692.42 (HIV-1)"}, "HIV-1 Env of REJO.67": {"molecular_target": "HIV-1 Env of REJO.67 (HIV-1)"}, "HIV-1 Env of RHPA.7": {"molecular_target": "HIV-1 Env of RHPA.7 (HIV-1)"}, "HIV-1 Env of SC422.8": {"molecular_target": "HIV-1 Env of SC422.8 (HIV-1)"}, "HIV-1 Env of THRO.18": {"molecular_target": "HIV-1 Env of THRO.18 (HIV-1)"}, "HIV-1 Env of TRJO.58": {"molecular_target": "HIV-1 Env of TRJO.58 (HIV-1)"}, "HIV-1 Env of TRO.11": {"molecular_target": "HIV-1 Env of TRO.11 (HIV-1)"}, "HIV-1 Env of WITO.33": {"molecular_target": "HIV-1 Env of WITO.33 (HIV-1)"}, "HIV-1 Env of 191821.E6.1": {"molecular_target": "HIV-1 Env of 191821.E6.1 (HIV-1)"}, "HIV-1 Env of 3016.V5.c36": {"molecular_target": "HIV-1 Env of 3016.V5.c36 (HIV-1)"}, "HIV-1 Env of 6405.v4.c34": {"molecular_target": "HIV-1 Env of 6405.v4.c34 (HIV-1)"}, "HIV-1 Env of C1080.c3": {"molecular_target": "HIV-1 Env of C1080.c3 (HIV-1)"}, "HIV-1 Env of CM244.ec1": {"molecular_target": "HIV-1 Env of CM244.ec1 (HIV-1)"}}, "data": [{"binder": "B1", "values": [{"measurement": "neutralization IC50", "setting": "HIV-1 Env of CAP256.PI", "result": "> 50", "unit": "µg/mL"}, {"measurement": "neutralization IC50", "setting": "HIV-1 Env of CAP256.SU", "result": 0.031, "unit": "µg/mL"}, {"measurement": "neutralization IC50", "setting": "HIV-1 Env of 96ZM651.02", "result": "> 50", "unit": "µg/mL"}, {"measurement": "neutralization IC50", "setting": "HIV-1 Env of CAP210.E8", "result": 0.1, "unit": "µg/mL"}, {"measurement": "neutralization IC50", "setting": "HIV-1 Env of CAP244.D3", "result": "> 50", "unit": "µg/mL"}, {"measurement": "neutralization IC50", "setting": "HIV-1 Env of CAP45.G3", "result": "> 50", "unit": "µg/mL"}, {"measurement": "neutralization IC50", "setting": "HIV-1 Env of DU156.12", "result": "> 50", "unit": "µg/mL"}, {"measurement": "neutralization IC50", "setting": "HIV-1 Env of DU172.17", "result": "> 50", "unit": "µg/mL"}, {"measurement": "neutralization IC50", "setting": "HIV-1 Env of DU422.01", "result": 8.2, "unit": "µg/mL"}, {"measurement": "neutralization IC50", "setting": "HIV-1 Env of ZM109.4", "result": "> 50", "unit": "µg/mL"}, {"measurement": "neutralization IC50", "setting": "HIV-1 Env of ZM135.10a", "result": "> 50", "unit": "µg/mL"}, {"measurement": "neutralization IC50", "setting": "HIV-1 Env of ZM197.7", "result": 0.346, "unit": "µg/mL"}, {"measurement": "neutralization IC50", "setting": "HIV-1 Env of ZM214.15", "result": "> 50", "unit": "µg/mL"}, {"measurement": "neutralization IC50", "setting": "HIV-1 Env of ZM233.6", "result": 0.228, "unit": "µg/mL"}, {"measurement": "neutralization IC50", "setting": "HIV-1 Env of ZM249.1", "result": "> 50", "unit": "µg/mL"}, {"measurement": "neutralization IC50", "setting": "HIV-1 Env of ZM53.12", "result": 0.072, "unit": "µg/mL"}, {"measurement": "neutralization IC50", "setting": "HIV-1 Env of 0260.v5.c36", "result": "> 50", "unit": "µg/mL"}, {"measurement": "neutralization IC50", "setting": "HIV-1 Env of BG505.w6m", "result": "> 50", "unit": "µg/mL"}, {"measurement": "neutralization IC50", "setting": "HIV-1 Env of KER2008.12", "result": "> 50", "unit": "µg/mL"}, {"measurement": "neutralization IC50", "setting": "HIV-1 Env of KER2018.11", "result": 0.335, "unit": "µg/mL"}, {"measurement": "neutralization IC50", "setting": "HIV-1 Env of MB201", "result": "> 50", "unit": "µg/mL"}, {"measurement": "neutralization IC50", "setting": "HIV-1 Env of MB539.2B7", "result": "> 50", "unit": "µg/mL"}, {"measurement": "neutralization IC50", "setting": "HIV-1 Env of Q168.a2", "result": "> 50", "unit": "µg/mL"}, {"measurement": "neutralization IC50", "setting": "HIV-1 Env of Q23.17", "result": 2.59, "unit": "µg/mL"}, {"measurement": "neutralization IC50", "setting": "HIV-1 Env of Q259.d2.17", "result": 24.6, "unit": "µg/mL"}, {"measurement": "neutralization IC50", "setting": "HIV-1 Env of Q461.e2", "result": "> 50", "unit": "µg/mL"}, {"measurement": "neutralization IC50", "setting": "HIV-1 Env of Q769.d22", "result": "> 50", "unit": "µg/mL"}, {"measurement": "neutralization IC50", "setting": "HIV-1 Env of Q842.d12", "result": "> 50", "unit": "µg/mL"}, {"measurement": "neutralization IC50", "setting": "HIV-1 Env of RW020.2", "result": "> 50", "unit": "µg/mL"}, {"measurement": "neutralization IC50", "setting": "HIV-1 Env of UG037.8", "result": "> 50", "unit": "µg/mL"}, {"measurement": "neutralization IC50", "setting": "HIV-1 Env of 6535.3", "result": "> 50", "unit": "µg/mL"}, {"measurement": "neutralization IC50", "setting": "HIV-1 Env of AC10.29", "result": "> 50", "unit": "µg/mL"}, {"measurement": "neutralization IC50", "setting": "HIV-1 Env of CAAN.A2", "result": "> 50", "unit": "µg/mL"}, {"measurement": "neutralization IC50", "setting": "HIV-1 Env of PVO.04", "result": 2.48, "unit": "µg/mL"}, {"measurement": "neutralization IC50", "setting": "HIV-1 Env of QH0692.42", "result": "> 50", "unit": "µg/mL"}, {"measurement": "neutralization IC50", "setting": "HIV-1 Env of REJO.67", "result": "> 50", "unit": "µg/mL"}, {"measurement": "neutralization IC50", "setting": "HIV-1 Env of RHPA.7", "result": "> 50", "unit": "µg/mL"}, {"measurement": "neutralization IC50", "setting": "HIV-1 Env of SC422.8", "result": "> 50", "unit": "µg/mL"}, {"measurement": "neutralization IC50", "setting": "HIV-1 Env of THRO.18", "result": "> 50", "unit": "µg/mL"}, {"measurement": "neutralization IC50", "setting": "HIV-1 Env of TRJO.58", "result": "> 50", "unit": "µg/mL"}, {"measurement": "neutralization IC50", "setting": "HIV-1 Env of TRO.11", "result": "> 50", "unit": "µg/mL"}, {"measurement": "neutralization IC50", "setting": "HIV-1 Env of WITO.33", "result": "> 50", "unit": "µg/mL"}, {"measurement": "neutralization IC50", "setting": "HIV-1 Env of 191821.E6.1", "result": "> 50", "unit": "µg/mL"}, {"measurement": "neutralization IC50", "setting": "HIV-1 Env of 3016.V5.c36", "result": 0.017, "unit": "µg/mL"}, {"measurement": "neutralization IC50", "setting": "HIV-1 Env of 6405.v4.c34", "result": "> 50", "unit": "µg/mL"}, {"measurement": "neutralization IC50", "setting": "HIV-1 Env of C1080.c3", "result": "> 50", "unit": "µg/mL"}, {"measurement": "neutralization IC50", "setting": "HIV-1 Env of CM244.ec1", "result": 0.914, "unit": "µg/mL"}]}]}
